IntAct's records for PubMed 16427013

B1: Protein NRD1 (Saccharomyces cerevisiae), P53617 (parent)
chain: MQQDDDFQNFVATLESFKDLKSGISGSRIKKLTTYALDHIDIESKIISLIIDYSRLCPDSHKLGSLYIIDSIGRAYLDETRSNSNSSSNKPGTCAHAINTLGEVIQELLSDAIAKSNQDHKEKIRMLLDIWDRSGLFQKSYLNAIRSKCFAMDISNNTANTASQQLSLDPKQRSKQILSNLKKSPPLNLNISLPTDLTSTDPAKQQAALFQVIAALQKHFKTLPSHTSVGTVAPPQAHTITEYGSRRERERERERYNSRRNRSRSPPAPFSQPSTGRKDRYPSVAQDQYSIGAPNTTFGTNNHHLYPDELNVSNNPHYRPKPVSYDSTLPPDHIKVYSRTLFIGGVPLNMKEWDLANVLKPFAEVQSVILNNSRKHAFVKVYSRHEAENVLQNFNKDGALPLRTRWGVGFGPRDCCDYQHGYSIIPMHRLTDADKKWSVSAQWGGTSGQPLVTGIVFEEPDIIVGEGVSSKAISQKMPTDSGRNGPRSGKPNKSGSISSISPVPYGNAPLASPPPQQYVQPMMQQPYGYAPNQPLPSQGPAAAAPPVPQQQFDPTAQLNSLMNMLNQQQQQQQQS
partner: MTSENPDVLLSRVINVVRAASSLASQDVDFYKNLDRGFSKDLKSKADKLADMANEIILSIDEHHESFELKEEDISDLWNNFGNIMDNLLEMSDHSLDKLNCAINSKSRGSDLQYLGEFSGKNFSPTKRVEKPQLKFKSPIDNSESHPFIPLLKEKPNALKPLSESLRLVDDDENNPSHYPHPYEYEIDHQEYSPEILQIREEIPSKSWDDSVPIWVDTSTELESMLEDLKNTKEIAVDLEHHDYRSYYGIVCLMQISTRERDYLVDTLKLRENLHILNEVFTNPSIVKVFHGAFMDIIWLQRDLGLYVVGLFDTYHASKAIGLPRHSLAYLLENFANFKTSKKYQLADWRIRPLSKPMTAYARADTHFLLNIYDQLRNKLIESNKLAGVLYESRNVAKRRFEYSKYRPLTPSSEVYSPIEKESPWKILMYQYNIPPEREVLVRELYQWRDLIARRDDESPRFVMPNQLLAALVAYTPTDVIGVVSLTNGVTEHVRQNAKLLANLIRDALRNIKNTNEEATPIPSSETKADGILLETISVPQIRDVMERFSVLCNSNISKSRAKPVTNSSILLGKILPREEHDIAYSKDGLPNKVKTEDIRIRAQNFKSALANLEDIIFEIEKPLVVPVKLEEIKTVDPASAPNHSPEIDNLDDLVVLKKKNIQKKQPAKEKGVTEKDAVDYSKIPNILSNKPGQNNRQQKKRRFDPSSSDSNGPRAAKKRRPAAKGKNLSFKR

Variants of: B1
Conditions: with rrp6_yeast RRP6, Q12149

| Variant | effect of a mutation on the interaction |
| --- | --- |
| V379R | with no effect |
